Reference: paper PMC6172466

Target: FlAsH-tagged K63-linked diubiquitin (UniProt P0CG48)
Test: fluorescence polarisation; FlAsH-tagged K63-linked diUb (diluted to 80 nM, mixed 1:1) with serially diluted OTUD1; 50 mM Tris, 50 mM NaCl, 0.1% β-mercaptoethanol, pH 7.6; room temperature, 1 h

- Kd: 40 µM
B1: OTUD1 catalytic domain (residues 287-435) C320A (domain or fragment)
chain: DEKLALYLAEVEKQDKYLRQRNKYRFHIIPDGNALYRAVSKTVYGDQSLHRELREQTVHYIADHLDHFSPLIEGDVGEFIIAAAQDGAWAGYPELLAMGQMLNVNIHLTTGGRLESPTVSTMIHYLGPEDSLRPSIWLSWLSNGHYDAV
